Experimental data as given in the supplement of paper PMC10567573.

B1: ATE1 (parent)
chain: DYFPSEDFYRCGYCKNESGSRSNG

Variants of: B1
Test: protein stability index of a GFP-peptide fusion (GPS, HEK-293T) (PSI 1-6); higher = more stable
Conditions: c terminus: a fixed tail appended
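Further: lentivirally expressed fusions sorted by FACS into six bins by GFP to DsRed ratio, PSI derived from sequencing read proportions per bin multiplied by bin number.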

Variant | protein stability index
DYFESEDFYRCGYCKNESGSRSNG [P4E] | 2.21
DYFDSEDFYRCGYCKNESGSRSNG [P4D] | 2.07
DYFSSEDFYRCGYCKNESGSRSNG [P4S] | 3.09
DYFCSEDFYRCGYCKNESGSRSNG [P4C] | 2.08
DYFMSEDFYRCGYCKNESGSRSNG [P4M] | 2.59
DYFKSEDFYRCGYCKNESGSRSNG [P4K] | 1.92
DYFVSEDFYRCGYCKNESGSRSNG [P4V] | 1.18
DYFWSEDFYRCGYCKNESGSRSNG [P4W] | 1.08
DYFRSEDFYRCGYCKNESGSRSNG [P4R] | 1.79
DYFTSEDFYRCGYCKNESGSRSNG [P4T] | 2.26
DYFHSEDFYRCGYCKNESGSRSNG [P4H] | 1.29
DYFLSEDFYRCGYCKNESGSRSNG [P4L] | 2.53
DYFFSEDFYRCGYCKNESGSRSNG [P4F] | 1.43
DYFNSEDFYRCGYCKNESGSRSNG [P4N] | 2.16
DYFISEDFYRCGYCKNESGSRSNG [P4I] | 1.45
DYFPMEDFYRCGYCKNESGSRSNG [S5M] | 1.42
DYFPREDFYRCGYCKNESGSRSNG [S5R] | 1.7
DYFPVEDFYRCGYCKNESGSRSNG [S5V] | 2.16
DYFPCEDFYRCGYCKNESGSRSNG [S5C] | 1.52
DYFPHEDFYRCGYCKNESGSRSNG [S5H] | 1.98
DYFPFEDFYRCGYCKNESGSRSNG [S5F] | 2.01
DYFPTEDFYRCGYCKNESGSRSNG [S5T] | 2.15
DYFPIEDFYRCGYCKNESGSRSNG [S5I] | 1.88
DYFPNEDFYRCGYCKNESGSRSNG [S5N] | 1.61

Variant | protein stability index
DYFPQEDFYRCGYCKNESGSRSNG [S5Q] | 2.41
DYFPKEDFYRCGYCKNESGSRSNG [S5K] | 2.02
DYFPDEDFYRCGYCKNESGSRSNG [S5D] | 2.46
DYFPAEDFYRCGYCKNESGSRSNG [S5A] | 2.19
DYFPGEDFYRCGYCKNESGSRSNG [S5G] | 2.17
DYFPLEDFYRCGYCKNESGSRSNG [S5L] | 1.61
DYFPPEDFYRCGYCKNESGSRSNG [S5P] | 2.32
DYFPYEDFYRCGYCKNESGSRSNG [S5Y] | 2.83
DPFPSEDFYRCGYCKNESGSRSNG [Y2P] | 2.64
DNFPSEDFYRCGYCKNESGSRSNG [Y2N] | 2.36
DMFPSEDFYRCGYCKNESGSRSNG [Y2M] | 1.36
DWFPSEDFYRCGYCKNESGSRSNG [Y2W] | 1.24
DKFPSEDFYRCGYCKNESGSRSNG [Y2K] | 2.38
DTFPSEDFYRCGYCKNESGSRSNG [Y2T] | 2.63
DGFPSEDFYRCGYCKNESGSRSNG [Y2G] | 2.56
DSFPSEDFYRCGYCKNESGSRSNG [Y2S] | 2.44
DVFPSEDFYRCGYCKNESGSRSNG [Y2V] | 2.18
DLFPSEDFYRCGYCKNESGSRSNG [Y2L] | 2.43
DAFPSEDFYRCGYCKNESGSRSNG [Y2A] | 3.05
DIFPSEDFYRCGYCKNESGSRSNG [Y2I] | 2.09
DEFPSEDFYRCGYCKNESGSRSNG [Y2E] | 2.63
DDFPSEDFYRCGYCKNESGSRSNG [Y2D] | 2.53
DCFPSEDFYRCGYCKNESGSRSNG [Y2C] | 2.82
DRFPSEDFYRCGYCKNESGSRSNG [Y2R] | 4.56

Variant | protein stability index
DHFPSEDFYRCGYCKNESGSRSNG [Y2H] | 2.37
DFFPSEDFYRCGYCKNESGSRSNG [Y2F] | 1.82
DYFPSEDFKRCGYCKNESGSRSNG [Y9K] | 2.37
DYFPSEDFFRCGYCKNESGSRSNG [Y9F] | 1.92
DYFPSEDFARCGYCKNESGSRSNG [Y9A] | 2.99
DYFPSEDFDRCGYCKNESGSRSNG [Y9D] | 2.42
DYFPSEDFCRCGYCKNESGSRSNG [Y9C] | 3.12
DYFPSEDFERCGYCKNESGSRSNG [Y9E] | 2.43
DYFPSEDFHRCGYCKNESGSRSNG [Y9H] | 1.82
DYFPSEDFIRCGYCKNESGSRSNG [Y9I] | 1.88
DYFPSYDFYRCGYCKNESGSRSNG [E6Y] | 1.74
DYFPSFDFYRCGYCKNESGSRSNG [E6F] | 1.56
DYFPSMDFYRCGYCKNESGSRSNG [E6M] | 2.38
DYFPSRDFYRCGYCKNESGSRSNG [E6R] | 1.53
DYFPSQDFYRCGYCKNESGSRSNG [E6Q] | 1.92
DYFPSLDFYRCGYCKNESGSRSNG [E6L] | 1.85
DYFPSGDFYRCGYCKNESGSRSNG [E6G] | 1.65
DYFPSSDFYRCGYCKNESGSRSNG [E6S] | 1.8
DYFPSHDFYRCGYCKNESGSRSNG [E6H] | 2.17
DYFPSVDFYRCGYCKNESGSRSNG [E6V] | 1.45
DYFPSTDFYRCGYCKNESGSRSNG [E6T] | 2.94
DYFPSADFYRCGYCKNESGSRSNG [E6A] | 1.81
DYFPSKDFYRCGYCKNESGSRSNG [E6K] | 1.35
DYFPSCDFYRCGYCKNESGSRSNG [E6C] | 1.85

Variant | protein stability index
DYFPSPDFYRCGYCKNESGSRSNG [E6P] | 2.24
DYFPSDDFYRCGYCKNESGSRSNG [E6D] | 1.92
DYFPSNDFYRCGYCKNESGSRSNG [E6N] | 1.68
DYFPSWDFYRCGYCKNESGSRSNG [E6W] | 2.04
VYFPSEDFYRCGYCKNESGSRSNG [D1V] | 2.58
SYFPSEDFYRCGYCKNESGSRSNG [D1S] | 2.15
TYFPSEDFYRCGYCKNESGSRSNG [D1T] | 2.24
MYFPSEDFYRCGYCKNESGSRSNG [D1M] | 2.06
LYFPSEDFYRCGYCKNESGSRSNG [D1L] | 2.38
PYFPSEDFYRCGYCKNESGSRSNG [D1P] | 2.35
IYFPSEDFYRCGYCKNESGSRSNG [D1I] | 1.23
QYFPSEDFYRCGYCKNESGSRSNG [D1Q] | 1.89
CYFPSEDFYRCGYCKNESGSRSNG [D1C] | 2.26
NYFPSEDFYRCGYCKNESGSRSNG [D1N] | 2
AYFPSEDFYRCGYCKNESGSRSNG [D1A] | 2.3
FYFPSEDFYRCGYCKNESGSRSNG [D1F] | 1.84
HYFPSEDFYRCGYCKNESGSRSNG [D1H] | 2.58
KYFPSEDFYRCGYCKNESGSRSNG [D1K] | 2.28
EYFPSEDFYRCGYCKNESGSRSNG [D1E] | 1.65
YYFPSEDFYRCGYCKNESGSRSNG [D1Y] | 3.1
WYFPSEDFYRCGYCKNESGSRSNG [D1W] | 3.35
RYFPSEDFYRCGYCKNESGSRSNG [D1R] | 1.74
